Experimental data reported in PMC4176360, “Crystal structure of the catalytic core of Rad2: insights into the mechanism of substrate binding” (Nucleic Acids Research, 2014).

Experiments:
Sc-Rad2-ΔSC [1] = molecular target: T1, Sc-Rad2-ΔSC (Saccharomyces cerevisiae, UniProt P07276 2-986, del112-731;del987-1031); test: X-ray crystallography, 2.1 Å; Ca2+ at active site; K+ at H2TH; Crystallization at room temperature, protein:DNA 1:1.2, 10 mg/ml protein; protein in 20 mM HEPES pH 7.5, 150 mM KCl, 5 mM Ca acetate, 5% glycerol, 0.5 mM TCEP (complex I: 150 mM NaCl); point-mutant cleavage assays without a binding read-out not listed; details: protein: recombinant; tags: 6xHis-SUMO removed by SENP; N-terminal Gly2 after cleavage; chain copies: 2; 14 complementary bp with TT overhangs on all four ends; in crystal 15-mer duplex with one T-T mismatch, 1 nt overhangs at one end and 2 nt at the other
Sc-Rad2-ΔSC [2] = molecular target: T1, Sc-Rad2-ΔSC; test: X-ray crystallography, 2.4 Å; Ca2+ at active site; K+ at H2TH; Crystallization at room temperature, protein:DNA 1:1.2, 10 mg/ml protein; protein in 20 mM HEPES pH 7.5, 150 mM KCl, 5 mM Ca acetate, 5% glycerol, 0.5 mM TCEP (complex I: 150 mM NaCl); point-mutant cleavage assays without a binding read-out not listed; details: protein: recombinant; tags: 6xHis-SUMO removed by SENP; N-terminal Gly2 after cleavage; chain copies: 2; 15 bp with 1 nt overhangs on all four ends
[3] = molecular target: the molecule itself; test: crystal structure; complex I: selenomethionine-labeled Rad2-ΔSC mixed with DNA at a 1:1.2 molar ratio, sitting-drop vapor diffusion, room temperature, reservoir 20% (v/v) ethylene glycol; space group P3(2)21, 2.75 Å
[4] = molecular target: Sc-Rad2-ΔSC (complex I construct) (Saccharomyces cerevisiae, UniProt P07276 1-986, del112-731;del987-1031); test: X-ray crystallography; non-productive complex; DNA largely disordered, backbone contacts H2TH of one subunit; Crystallization at room temperature, protein:DNA 1:1.2, 10 mg/ml protein; protein in 20 mM HEPES pH 7.5, 150 mM KCl, 5 mM Ca acetate, 5% glycerol, 0.5 mM TCEP (complex I: 150 mM NaCl); point-mutant cleavage assays without a binding read-out not listed; details: protein: recombinant; tags: 6xHis-SUMO cleaved; two additional N-terminal residues left; chain copies: 2; duplex 12-15 bp with overhangs
Sc-Rad2-ΔSC [5] = molecular target: T1, Sc-Rad2-ΔSC; test: X-ray crystallography, 2.7 Å; Ca2+ at active site; K+ at H2TH; Crystallization at room temperature, protein:DNA 1:1.2, 10 mg/ml protein; protein in 20 mM HEPES pH 7.5, 150 mM KCl, 5 mM Ca acetate, 5% glycerol, 0.5 mM TCEP (complex I: 150 mM NaCl); point-mutant cleavage assays without a binding read-out not listed; details: protein: recombinant; tags: 6xHis-SUMO removed by SENP; N-terminal Gly2 after cleavage; chain copies: 2; 15 bp with 4 nt overhangs on all four ends

B1: complex II DNA (dsDNA)
DNA 1: TTAGGTGGACGGATCATT
DNA 2: TTTGATCCGTCCACCTTT
binding result (Sc-Rad2-ΔSC [1]): binds

B2: complex III DNA (dsDNA)
DNA 1: TGCTCCCTTGTCTCAGT
DNA 2: TCTGAGACAAGGGAGCT
binding result (Sc-Rad2-ΔSC [2]): binds

B3: Sc-Rad2-ΔSC (Δ112-731, Δ987-1031) (enzyme, S. cerevisiae, UniProt P07276 1-986, looked up)
chain: MGVHSFWDIAGPTARPVRLESLEDKRMAVDASIWIYQFLKAVRDQEGNAVKNSHITGFFRRICKLLYFGIRPVFVFDGGVPVLKRETIRQRKERRQGKRESAKSTARKLLANTTLSTSAERNVAENAFVEDELFEQQMKDKRDSDEVTMDMIKEVQELLSRFGIPYITAPMEAEAQCAELLQLNLVDGIITDDSDVFLFGGTKIYKNMFHEKNYVEFYDAESILKLLGLDRKNMIELAQLLGSDYTNGLKGMGPVSSIEVIAEFGNLKNFKDWYNNGQFDKRKQETENKFEKDLRKKLVNNEIILDDDFPSVMVYDAYMRPEVDHDTTPFVWGVPDLDMLRSFMKTQLGWPHEKSDEILIPLIRDV
modifications: selenomethionine-labeled (complex I)
notes: Rad2, S. cerevisiae, spacer residues 112-731 removed and C-terminus (residues 987-1031) removed; The dimer is seen in crystal complex I together with disordered DNA; The same construct, not selenomethionine-labeled, stands in complexes II-IV; also called Sc-Rad-ΔSC; catalytic core of Rad2; source: E. coli BL21 (DE3) Rosseta, purified (HisTrap, SENP cleavage, second HisTrap, Superdex 200); …
binding result [3]: binds

B4: complex I DNA (dsDNA)
DNA 1: AAAGCTCTGACTCAG
DNA 2: CTGAGTCAGAGCAAA
binding result [4]: binds

B5: complex IV DNA (dsDNA)
DNA 1: TTTTGCTCCCTTGTCTCAGTTTT
DNA 2: TTTTCTGAGACAAGGGAGCTTTT
binding result (Sc-Rad2-ΔSC [5]): binds
